Test results as given in patent US20240270846A1 (published 2024).

target: T1, CD3 epsilon homodimer protein (UniProt P07766 23-126); experiment: SPR Biacore T200, antibody over immobilised CD3e homodimer;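 further: CD3 epsilon homodimer amine-coupled on a CM4 chip, run at 25 °C in HBS-EP+, Z = bound amount of each single-residue H chain variant over that of the parent antibody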
T1 construct: also called CD3 (CD3 epsilon)
T1 sequence (P07766 23-126): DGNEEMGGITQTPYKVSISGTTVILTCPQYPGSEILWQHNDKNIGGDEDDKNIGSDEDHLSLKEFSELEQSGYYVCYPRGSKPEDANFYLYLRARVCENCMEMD

| ratio of amounts bound (Z=Y/X vs CE115HA000) | Binder |
| --- | --- |
| 0.74 | CE115HA000 K52bY one-arm antibody (antibody, human IgG1, kappa, L234A L235A, N297A, name in Kabat numbering, one-arm antibody) heavy: QVQLVESGGGVVQPGRSLRLSCAASGFTFSNAWMHWVRQAPGKGLEWVAQIKAYSNNYATYYAESVKGRFTISRDDSKNSLYLQMNSLKTEDTAVYYCRYVHYGAYYGVDAWGQGTTVTVSSASTKGPSVFPLAPSSKSTSGGTAALGCLVKDYFPEPVTVSWNSGALTSGVHTFPAVLQSSGLYSLSSVVTVPSSSLGTQTYICNVNHKPSNTKVDKKVEPKSCDKTHTCPPCPAPEAAGGPSVFLFPPKPKDTLMISRTPEVTCVVVDVSHEDPEVKFNWYVDGVEVHNAKTKPREEQYASTYRVVSVLTVLHQDWLNGKEYKCKVSNKALPAPIEKTISKAKGQPREPQVYTLPPSRCELTKNQVSLSCAVKGFYPSDIAVEWESNGQPENNYKTTPPVLDSDGSFFLVSKLTVDKSRWQQGNVFSCSVMHEALHNHYTQKSLSLSPDYKDDDDK EPKSSDKTHTCPPCPAPELLGGPSVFLFPPKPKDTLMISRTPEVTCVVVDVSHEDPEVKFNWYVDGVEVHNAKTKPREEQYNSTYRVVSVLTVLHQDWLNGKEYKCKVSNKALPAPIEKTISKAKGQPREPQVCTLPPSRDELTKNQVSLWCLVKGFYPSDIAVEWESNGQPENNYKTTPPVLDSDGSFFLYSKLTVDKSRWQQGNVFSCSVMHEALHNRYTQKSLSLSP light: DIVMTQSPLSLPVTPGEPASISCRSSQSLVHSNRNTYLHWYQQKPGQAPRLLIYKVSNRFSGVPDRFSGSGSGTDFTLKISRVEAEDVGVYYCGQGTQVPYTFGQGTKLEIKRTVAAPSVFIFPPSDEQLKSGTASVVCLLNNFYPREAKVQWKVDNALQSGNSQESVTEQDSKDSTYSLSSTLTLSKADYEKHKVYACEVTHQGLSSPVTKSFNRGEC |
| 0.68 | CE115HA000 K52bS one-arm antibody (antibody, human IgG1, kappa, L234A L235A, N297A, name in Kabat numbering, one-arm antibody) heavy: QVQLVESGGGVVQPGRSLRLSCAASGFTFSNAWMHWVRQAPGKGLEWVAQIKASSNNYATYYAESVKGRFTISRDDSKNSLYLQMNSLKTEDTAVYYCRYVHYGAYYGVDAWGQGTTVTVSSASTKGPSVFPLAPSSKSTSGGTAALGCLVKDYFPEPVTVSWNSGALTSGVHTFPAVLQSSGLYSLSSVVTVPSSSLGTQTYICNVNHKPSNTKVDKKVEPKSCDKTHTCPPCPAPEAAGGPSVFLFPPKPKDTLMISRTPEVTCVVVDVSHEDPEVKFNWYVDGVEVHNAKTKPREEQYASTYRVVSVLTVLHQDWLNGKEYKCKVSNKALPAPIEKTISKAKGQPREPQVYTLPPSRCELTKNQVSLSCAVKGFYPSDIAVEWESNGQPENNYKTTPPVLDSDGSFFLVSKLTVDKSRWQQGNVFSCSVMHEALHNHYTQKSLSLSPDYKDDDDK EPKSSDKTHTCPPCPAPELLGGPSVFLFPPKPKDTLMISRTPEVTCVVVDVSHEDPEVKFNWYVDGVEVHNAKTKPREEQYNSTYRVVSVLTVLHQDWLNGKEYKCKVSNKALPAPIEKTISKAKGQPREPQVCTLPPSRDELTKNQVSLWCLVKGFYPSDIAVEWESNGQPENNYKTTPPVLDSDGSFFLYSKLTVDKSRWQQGNVFSCSVMHEALHNRYTQKSLSLSP light: DIVMTQSPLSLPVTPGEPASISCRSSQSLVHSNRNTYLHWYQQKPGQAPRLLIYKVSNRFSGVPDRFSGSGSGTDFTLKISRVEAEDVGVYYCGQGTQVPYTFGQGTKLEIKRTVAAPSVFIFPPSDEQLKSGTASVVCLLNNFYPREAKVQWKVDNALQSGNSQESVTEQDSKDSTYSLSSTLTLSKADYEKHKVYACEVTHQGLSSPVTKSFNRGEC |

Continued, binder first:

| Binder | ratio of amounts bound (Z=Y/X vs CE115HA000) |
| --- | --- |
| CE115HA000 K52bQ one-arm antibody (antibody, human IgG1, kappa, L234A L235A, N297A, name in Kabat numbering, one-arm antibody) heavy: QVQLVESGGGVVQPGRSLRLSCAASGFTFSNAWMHWVRQAPGKGLEWVAQIKAQSNNYATYYAESVKGRFTISRDDSKNSLYLQMNSLKTEDTAVYYCRYVHYGAYYGVDAWGQGTTVTVSSASTKGPSVFPLAPSSKSTSGGTAALGCLVKDYFPEPVTVSWNSGALTSGVHTFPAVLQSSGLYSLSSVVTVPSSSLGTQTYICNVNHKPSNTKVDKKVEPKSCDKTHTCPPCPAPEAAGGPSVFLFPPKPKDTLMISRTPEVTCVVVDVSHEDPEVKFNWYVDGVEVHNAKTKPREEQYASTYRVVSVLTVLHQDWLNGKEYKCKVSNKALPAPIEKTISKAKGQPREPQVYTLPPSRCELTKNQVSLSCAVKGFYPSDIAVEWESNGQPENNYKTTPPVLDSDGSFFLVSKLTVDKSRWQQGNVFSCSVMHEALHNHYTQKSLSLSPDYKDDDDK EPKSSDKTHTCPPCPAPELLGGPSVFLFPPKPKDTLMISRTPEVTCVVVDVSHEDPEVKFNWYVDGVEVHNAKTKPREEQYNSTYRVVSVLTVLHQDWLNGKEYKCKVSNKALPAPIEKTISKAKGQPREPQVCTLPPSRDELTKNQVSLWCLVKGFYPSDIAVEWESNGQPENNYKTTPPVLDSDGSFFLYSKLTVDKSRWQQGNVFSCSVMHEALHNRYTQKSLSLSP light: DIVMTQSPLSLPVTPGEPASISCRSSQSLVHSNRNTYLHWYQQKPGQAPRLLIYKVSNRFSGVPDRFSGSGSGTDFTLKISRVEAEDVGVYYCGQGTQVPYTFGQGTKLEIKRTVAAPSVFIFPPSDEQLKSGTASVVCLLNNFYPREAKVQWKVDNALQSGNSQESVTEQDSKDSTYSLSSTLTLSKADYEKHKVYACEVTHQGLSSPVTKSFNRGEC | 0.6 |
| CE115HA000 K52bR one-arm antibody (antibody, human IgG1, kappa, L234A L235A, N297A, name in Kabat numbering, one-arm antibody) heavy: QVQLVESGGGVVQPGRSLRLSCAASGFTFSNAWMHWVRQAPGKGLEWVAQIKARSNNYATYYAESVKGRFTISRDDSKNSLYLQMNSLKTEDTAVYYCRYVHYGAYYGVDAWGQGTTVTVSSASTKGPSVFPLAPSSKSTSGGTAALGCLVKDYFPEPVTVSWNSGALTSGVHTFPAVLQSSGLYSLSSVVTVPSSSLGTQTYICNVNHKPSNTKVDKKVEPKSCDKTHTCPPCPAPEAAGGPSVFLFPPKPKDTLMISRTPEVTCVVVDVSHEDPEVKFNWYVDGVEVHNAKTKPREEQYASTYRVVSVLTVLHQDWLNGKEYKCKVSNKALPAPIEKTISKAKGQPREPQVYTLPPSRCELTKNQVSLSCAVKGFYPSDIAVEWESNGQPENNYKTTPPVLDSDGSFFLVSKLTVDKSRWQQGNVFSCSVMHEALHNHYTQKSLSLSPDYKDDDDK EPKSSDKTHTCPPCPAPELLGGPSVFLFPPKPKDTLMISRTPEVTCVVVDVSHEDPEVKFNWYVDGVEVHNAKTKPREEQYNSTYRVVSVLTVLHQDWLNGKEYKCKVSNKALPAPIEKTISKAKGQPREPQVCTLPPSRDELTKNQVSLWCLVKGFYPSDIAVEWESNGQPENNYKTTPPVLDSDGSFFLYSKLTVDKSRWQQGNVFSCSVMHEALHNRYTQKSLSLSP light: DIVMTQSPLSLPVTPGEPASISCRSSQSLVHSNRNTYLHWYQQKPGQAPRLLIYKVSNRFSGVPDRFSGSGSGTDFTLKISRVEAEDVGVYYCGQGTQVPYTFGQGTKLEIKRTVAAPSVFIFPPSDEQLKSGTASVVCLLNNFYPREAKVQWKVDNALQSGNSQESVTEQDSKDSTYSLSSTLTLSKADYEKHKVYACEVTHQGLSSPVTKSFNRGEC | 1.11 |
